Assay results taken from the supplement of paper PMC12042874.
± gives the uncertainty stated by the source.

Assay: amyloid nucleation score (Sup35N fusion, yeast selection) (log enrichment); library NNK1; higher = more nucleation; inactive = no reads after selection
In short: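 The nucleation score is a DiMSum log enrichment of output over input reads, centred on the mode score of non-aggregating sequences. Sequences under 100 input reads were excluded, and reads came from Illumina sequencing of plasmid inserts. Psi-negative yeast expressing Sup35N fused to peptides of 20 random codons were induced with 100 μM copper sulfate for 24 hours and grown 7 days at 30°C on medium lacking adenine and uracil. Random libraries had three technical output replicates.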

| Substance | amyloid nucleation score |
| --- | --- |
| TLPYSKKSLTQFRRGAKICY | 0.588 ± 0.56 |
| TLRVLFFKCLGHIRLLVRGF | -1.64 ± 2.7 |
| TLRVVMKWLAHTWFRHTLMR | -0.083 ± 0.42 |
| TLTDSN | -0.221 ± 0.53 |
| TLTSPWDSYKRFCKNSPLFN | 0.353 ± 1.4 |
| TLVFRYKSDGCQSLRVRLTF | 0.084 ± 0.32 |
| TLVFYRVQGFGIPKSQLTGE | -0.675 ± 1.1 |
| TLVLSLAHPCASGNKPDKSG | 0.863 ± 0.32 |
| TLWYLLQITYVLKFKW | 0.301 ± 0.4 |
| TLYIYAMEDSGGFEDGGMCI | 4.18 ± 0.1 |
| TMCCTLDARRLLLSMADFYC | 5.42 ± 0.072 |
| TMISLAFIIYPLNMAPMYME | 1.97 ± 0.45 |
| TMPNSFRWCLNGRVRRDRFC | -0.215 ± 0.97 |
| TMSSFDGPSV | -2.58 ± 1.8 |
| TNVFGILYFEYFLVLDG | 0.208 ± 0.3 |
| TNVMLPNGVGFLAPAVHCES | 1.04 ± 0.51 |
| TNVYESSVSFVMMGS | 0.364 ± 0.26 |
| TPAFTIFSWAIGEDYLFVEM | 0.777 ± 0.9 |
| TPLWKSII | -0.046 ± 0.68 |
| TQPLEIK | -0.165 ± 1.5 |
| TQVIAPVVCMAIDYCANITV | 4.96 ± 0.099 |
| TRGCLRPATSKSGMRPW | 0.056 ± 0.69 |
| TRHFVTVFGCVDNRVEYLNG | 3.22 ± 0.1 |
| TRKLFTFMLDRMYLMVGRRL | -0.294 ± 0.6 |
| TRLGYFNFGSLHVSLWDFML | 0.6 ± 0.28 |

| Substance | amyloid nucleation score |
| --- | --- |
| TRRSRFW | 1.45 ± 0.35 |
| TRRVWLQCLMLSYMAVYISM | 0.044 ± 1.1 |
| TRVKQMEVVSWTRHHWPRCF | -0.623 ± 0.47 |
| TRYGVYQYVVDSLINCHLLE | -0.186 ± 0.52 |
| TSCEGEDFGRKLSREMVLWC | 0.234 ± 0.68 |
| TSCSLYIVMRCVWCIYRGAR | -0.866 ± 2.4 |
| TSCSVSLVWLFLGVRLCVLC | -0.009 ± 0.24 |
| TSDGVMMVR | 0.564 ± 0.34 |
| TSFFFHEQHHFKGNKFNFEV | 3.5 ± 0.18 |
| TSFYTGFWCPA | -0.232 ± 0.57 |
| TSIFCGSLLGAKVDSTPVPV | -1.27 ± 2.4 |
| TSLVVYYTSWV | -1.55 ± 2.4 |
| TSPCYWNCI | inactive |
| TSQTMTCWGSAL | 0.93 ± 0.4 |
| TSRALRREIARLKAYGSMMV | inactive |
| TSRNW | -0.626 ± 1.1 |
| TSSEFDLLNGQFANGYVLVH | 0.546 ± 0.5 |
| TSSVYLWVSQCYGMNSLLNL | -0.118 ± 0.75 |
| TSSWQVPVNAPEVN | inactive |
| TSSYGCQHINVMCCRLQGDL | 7.444 ± 0.074 |
| TSTRRHYRVFARAQQEQNSP | 0.869 ± 0.49 |
| TSTVVFFKFYLTKFWISVPT | 1.28 ± 0.36 |
| TSVDG | 0.162 ± 0.28 |
| TSVDVFS | 0.656 ± 0.62 |
| TSWFAFANWVLPSFHYTPVP | 0.43 ± 0.43 |

| Substance | amyloid nucleation score |
| --- | --- |
| TSWFSYRLANCAFHSQGFSR | 0.366 ± 0.38 |
| TSWGNVDGCYNGRTLVLLDF | -0.316 ± 0.67 |
| TSYPSYVDFW | 0.209 ± 0.58 |
| TTCVELYVWRGWRGAGGTGV | -1.41 ± 2.4 |
| TTEYRMLGYSVEHLQDCSDR | -0.527 ± 0.54 |
| TTFSEVERLWGWSVFCNLST | 0.723 ± 0.66 |
| TTINIRYPIYSVVMCWYRLE | 5.513 ± 0.045 |
| TTIRYNVLRAPMLCIIILMN | -0.607 ± 0.58 |
| TTSVV | -0.174 ± 1.2 |
| TTVKYLWLYLGFVLGQGVNG | -0.303 ± 0.25 |
| TVAFSVTTVDR | -0.875 ± 2.4 |
| TVAGLT | -0.224 ± 0.71 |
| TVCRSLSRLERHLR | 0.068 ± 0.63 |
| TVFFDYDDIYLVNSVFRSAV | -0.113 ± 0.44 |
| TVKCILYSRFHKGCGWRCER | 3.15 ± 0.14 |
| TVLSSFLLKLRLTIVSCFLR | -0.082 ± 0.65 |
| TVLTTTHFARSVFTLPGKSP | 2.89 ± 0.17 |
| TVLVYRGFTEGCSHFSWPSN | 0.302 ± 0.8 |
| TVQWAEN | 0.292 ± 0.63 |
| TVRLKLINRYPDENRLYTDH | 1.3 ± 0.21 |
| TVTWASGFMGGVDHCSWGQV | 0.043 ± 0.65 |
| TVVNSVGYYAPKLPSACLGN | 0.638 ± 0.31 |
| TWGRVFSLMAPFISRPCFWG | -0.385 ± 0.34 |
| TWMLVEVVNCCLYTHVFYR | 4.27 ± 0.061 |
| TWRNNLKWHMYTYLLPAHIG | -0.42 ± 0.46 |

| Substance | amyloid nucleation score |
| --- | --- |
| TWRQNSRGNRASNCYVRSLS | inactive |
| TWSACICKRMVLPCDFQNGS | 0.808 ± 0.9 |
| TWSCMFLYYFTLWLCTS | inactive |
| TWVMFDVWGRVDYER | 0.169 ± 0.4 |
| TYANGGALALAIVAVKC | -0.398 ± 0.64 |
| TYEPLTLMNGVLSVRSGPGI | -0.508 ± 1 |
| TYFWGSLIPEWWLFELYPLE | 1.66 ± 0.32 |
| TYGDGEAE | inactive |
| TYLFF | inactive |
| TYPYYVTVGGIS | 0.113 ± 0.43 |
| TYSEVRGYLLSRFAEVIDS | inactive |
| TYWMHCEWFSV | -1.4 ± 2.7 |
| VAACLKNMIESVQSVKYIWR | 0.837 ± 0.93 |
| VAATDWVGNHKS | 1.28 ± 0.55 |
| VAATGNYIIIDNVRLVHAFG | -0.987 ± 0.67 |
| VACNKLRYMCRCQYNMTVWF | -0.262 ± 0.62 |
| VADFSL | 1.44 ± 0.53 |
| VADGYIHARSCRYFKNIIVR | -1 ± 1.2 |
| VAFMDLTMRLDWGNFSNR | 4.34 ± 0.056 |
| VAISQCLNNSNSRNIIVVKW | 1.69 ± 0.34 |
| VARHGEGFNW | 0.446 ± 0.64 |
| VARHISAVSAWGACYRWCFR | 0.706 ± 0.51 |
| VAVQRPIFIVMWPQNLCISA | 3.69 ± 0.13 |
| VAVVLYAQTV | -0.376 ± 0.63 |
| VCCGPSSEEP | 0.384 ± 0.85 |

| Substance | amyloid nucleation score |
| --- | --- |
| VCFVFMS | -0.211 ± 0.41 |
| VCGFWVWLYVGVYSSIPNSM | -0.015 ± 0.31 |
| VCISWLRDTGADC | 2.12 ± 0.23 |
| VCKGSHWFIYLRNGFKSPSV | 1.46 ± 0.65 |
| VCKGVYNMPCSTPNLYDSAG | -0.563 ± 0.79 |
| VCLPSGLFINLGVWYAAQHH | 6.51 ± 0.069 |
| VCLQW | 0.386 ± 0.64 |
| VCLSC | 2.03 ± 0.41 |
| VCRGGSSFLLNTKLVNT | 0.675 ± 0.33 |
| VCSKGACSLGDVNCDSTDVG | 0.104 ± 0.63 |
| VCSSLFSSCPL | 0.735 ± 0.37 |
| VDHISCCVFVMAVHMELALR | -1.07 ± 1.8 |
| VDLDSVR | -0.236 ± 0.48 |
| VDNMLPFMGDYWDLFYGFLL | -0.217 ± 0.31 |
| VDRLNFLSLSYENFSGSSGE | 4.7 ± 0.064 |
| VDRQFTDEFKVFTEGTKVDE | -0.5 ± 1.4 |
| VDVAVVDTNLSLNMACKGWT | 1.21 ± 0.45 |
| VDVRNWCIWDWKGLSAGVGG | -0.643 ± 0.41 |
| VEDAIDACKFNCDSIDMTTD | -0.206 ± 0.75 |
| VERLAT | -0.259 ± 0.73 |
| VESFYVSIFGGGLRLKCSKS | 0.514 ± 0.46 |
| VETSGVILVESWCFMLGIDV | 0.724 ± 0.75 |
| VFADVISIKMNCTLLTSILL | 0.823 ± 0.37 |
| VFESIVNGQVMMTLN | -1.92 ± 2.4 |
| VFESWKFELRVWIVVTFLHG | 0.21 ± 0.52 |

| Substance | amyloid nucleation score |
| --- | --- |
| VFGVKVRDCASANGVFGWSS | -0.14 ± 1.4 |
| VFGVVSFLHDFNFGKAYFAV | 0.191 ± 0.4 |
| VFIQMGHELDFQCEE | 0.527 ± 0.63 |
| VFLIAWGLFSRMC | 4.54 ± 0.11 |
| VFLISY | 0.199 ± 0.42 |
| VFLSADDVSGPRVDAVSGYS | 0.713 ± 0.5 |
| VFNCWCLTEFFVMYGIVCQK | 4.52 ± 0.1 |
| VFNFT | -0.816 ± 1.9 |
| VFPALLNISRLISKTQCSQV | -0.978 ± 0.99 |
| VFRPGRSSDCNLSMLVQRVW | 4.18 ± 0.088 |
| VFSKHRFSIYCSRYAEPTTR | 0.002 ± 0.31 |
| VFTLPLDWQKRCGYDSLRFP | 0.018 ± 0.44 |
| VFTSAD | 0.093 ± 0.39 |
| VGCKP | -0.24 ± 0.75 |
| VGCLMWYALCGLE | 0.347 ± 0.5 |
| VGCSRIDDPRSGAEALRSYC | 1.08 ± 0.78 |
| VGELYFIVWMDLLLVGWDGR | 0.897 ± 0.53 |
| VGHPKVFWDGVGSRTILERS | 0.48 ± 0.74 |
| VGLDLALSYHFAQG | 4.8 ± 0.087 |
| VGLFVFSMSLGLAD | -1.55 ± 0.51 |
| VGLINHYSSSNMLG | 0.161 ± 0.62 |
| VGLLEAFMLRGDSRRCD | -1.25 ± 2.1 |
| VGLLMKTACSWAGSVTDRCM | 2.62 ± 0.14 |
| VGLLSISLMYQRTASTGYFS | 0.615 ± 0.28 |
| VGMYGSVSFMS | -1.02 ± 0.89 |

| Substance | amyloid nucleation score |
| --- | --- |
| VGQLSTFCLGILIVLSVN | 0.338 ± 0.18 |
| VGRLGVEG | -0.305 ± 0.25 |
| VGSLGM | -0.221 ± 0.37 |
| VGTDLNETVG | -0.646 ± 1.5 |
| VGVRRDTCSPRQVLGHTS | 0.301 ± 0.52 |
| VGWASQKINYWLETSGF | 0.329 ± 0.68 |
| VGWGAMQGLMSGGLYIPV | -0.671 ± 2.1 |
| VGYEVLSHYDAGIVSLVYLS | 0.645 ± 0.53 |
| VHAHVSREIFTGQ | 0.659 ± 1 |
| VHASYIVRIRHLSGILEGAV | 0.369 ± 0.46 |
| VHESTSHRMWRSLI | 1.15 ± 0.41 |
| VHFQYFLMLKLAQFVVVWNK | 0.669 ± 0.84 |
| VHGGAWLTGGSRTGAQFIAV | -0.402 ± 0.59 |
| VIFSNWVTAGFACFMHLLVR | 0.398 ± 0.9 |
| VIGLVLARLYFVQIEVLLHR | 1.24 ± 0.61 |
| VIKMFRRSDDIVVSKPLRE | -0.3 ± 0.5 |
| VILLILNYYSHWDVLLK | -0.111 ± 0.4 |
| VILTYGTVRY | 0.38 ± 0.59 |
| VILWRSRIASRCPTLM | -0.415 ± 1.4 |
| VIRCRKFRTVWILFLAISLV | inactive |
| VIRRLRSTYMSDMLLEGGLA | 0.864 ± 0.56 |
| VISGVCFSDIFLDVPTLWLW | 0.393 ± 0.3 |
| VITIGMFCRIIEGHYVMYLT | 0.089 ± 0.47 |
